Key:
bglg_ecoli bglG [1] = target: bglg_ecoli bglG (UniProt P11989)
bglg_ecoli bglG [2] = target: bglg_ecoli bglG (UniProt P11989); remark: listed apart in the source
bglg_ecoli bglG [3] = target: bglg_ecoli bglG (UniProt P11989); remark: listed apart in the source

Chain of bglg_ecoli bglG (P11989 whole entry): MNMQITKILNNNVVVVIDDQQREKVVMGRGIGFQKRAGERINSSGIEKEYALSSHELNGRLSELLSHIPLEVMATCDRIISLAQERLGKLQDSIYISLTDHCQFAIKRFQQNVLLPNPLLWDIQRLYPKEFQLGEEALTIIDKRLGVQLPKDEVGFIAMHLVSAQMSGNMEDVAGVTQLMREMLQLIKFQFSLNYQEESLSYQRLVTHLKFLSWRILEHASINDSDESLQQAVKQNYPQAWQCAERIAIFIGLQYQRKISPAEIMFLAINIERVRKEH

Row | effect of a mutation on the interaction (bglg_ecoli bglG [1]) | effect of a mutation on the interaction (bglg_ecoli bglG [2]) | effect of a mutation on the interaction (bglg_ecoli bglG [3]) | Substance
1 | increasing interaction | – | – | Phosphocarrier protein HPr (Escherichia coli (strain K12)), P0AA04 H15A
2 | – | disrupting interaction | decreasing interaction | Phosphoenolpyruvate-protein phosphotransferase (Escherichia coli (strain K12)), P08839 H189A
